# Assay results taken from patent US20260062456A1 (ALPINE IMMUNE SCIENCES, published 2026).
# T1: human TIGIT stably expressed on Jurkat/IL-2 reporter cells (Jurkat/TIGIT cells) (human, UniProt Q495A1 22-244)
# T1 sequence (looked up): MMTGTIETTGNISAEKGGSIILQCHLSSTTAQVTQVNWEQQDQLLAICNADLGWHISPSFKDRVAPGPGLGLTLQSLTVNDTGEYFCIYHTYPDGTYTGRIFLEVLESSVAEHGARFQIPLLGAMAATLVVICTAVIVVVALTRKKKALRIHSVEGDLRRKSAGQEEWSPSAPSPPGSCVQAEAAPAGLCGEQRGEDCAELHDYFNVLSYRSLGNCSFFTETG
# T2: human TIGIT stably expressed on Jurkat/IL-2 reporter cells (Jurkat/TIGIT cells) (human, UniProt Q495A1 22-244)
# T2 sequence: T1 sequence (looked up)
# T3: CD96 (UniProt P40200 22-585, limits assumed)
# T3 sequence (looked up): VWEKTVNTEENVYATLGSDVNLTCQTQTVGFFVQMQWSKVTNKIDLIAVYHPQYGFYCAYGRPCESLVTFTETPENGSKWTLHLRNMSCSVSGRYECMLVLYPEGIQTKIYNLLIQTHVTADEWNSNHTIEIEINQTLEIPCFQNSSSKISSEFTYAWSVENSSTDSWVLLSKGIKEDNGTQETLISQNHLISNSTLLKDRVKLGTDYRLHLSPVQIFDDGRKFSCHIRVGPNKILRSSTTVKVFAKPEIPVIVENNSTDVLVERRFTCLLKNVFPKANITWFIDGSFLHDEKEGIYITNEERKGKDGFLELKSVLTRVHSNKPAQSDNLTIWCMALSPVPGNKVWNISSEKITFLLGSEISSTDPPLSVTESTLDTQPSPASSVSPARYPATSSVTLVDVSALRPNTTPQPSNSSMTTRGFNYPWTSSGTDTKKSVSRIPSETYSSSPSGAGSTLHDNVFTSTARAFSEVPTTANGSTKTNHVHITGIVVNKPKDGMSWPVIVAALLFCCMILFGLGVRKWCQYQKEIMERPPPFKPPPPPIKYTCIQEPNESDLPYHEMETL
# B1: Wild-type CD155-ECD-Fc (Fc fusion, not shown: a dimerising Fc or GST)
# chain: WPPPGTGDVVVQAPTQVPGFLGDSVTLPCYLQVPNMEVTHVSQLTWARHGESGSMAVFHQTQGPSYSESKRLEFVAARLGAELRNASLRMFGLRVEDEGNYTCLFVTFPQGSRSVDIWLRVLAKPQNTAEVQKVQLTGEPVPMARCVSTGGRPPAQITWHSDLGGMPNTSQVPGFLSGTVTVTSLWILVPSSQVDGKNVTCKVEHESFEKPQLLTVNLTVYYPPEVSISGYDNNWYLGQNEATLTCDARSNPEPTGYNWSTTMGPLPPFAVAQGAQLLIRPVDKPINTTLICNVTNALGARQAELTVQVKEGPPSEHSGISRN
# B2: PD-L1/CD155 Stack 4: (PD-L1 IgV) (G4S)3 (CD155 IgV) (G4S)2 Fc (Fc fusion)
# chain: FTVTVPKDLYVVEYGSNMTIECKFPVEKQLDLAALIVYWEMEGKDIIQFVHGEEDQKAQHSSYRQRARLLKDQLSLGNAALQITDVKLQDAGVYRCMISYGGGADYKRITVKVNAGGGGSGGGGSGGGGSWPPPGTGDVVVQAPTQVSGFLGDSVTLPCYLQVPNMEVTHVSQLTWARHGESGSMAVFHQTQGPWYAESKRLEFVAARLGAELRNASLRMFGLRVEDEGNYTCQFVTFPQRSRSVDIWLRVLGGGGSGGGGSEPKSSDKTHTCPPCPAPEAEGAPSVFLFPPKPKDTLMISRTPEVTCVVVDVSHEDPEVKFNWYVDGVEVHNAKTKPREEQYNSTYRVVSVLTVLHQDWLNGKEYKCKVSNKALPAPIEKTISKAKGQPREPQVYTLPPSRDELTKNQVSLTCLVKGFYPSDIAVEWESNGQPENNYKTTPPVLDSDGSFFLYSKLTVDKSRWQQGNVFSCSVMHEALHNHYTQKSLSLSPGK
# B3: PD-L1/CD155 Stack 4 (Fc fusion)
# chain: B2 chain
# B4: PD-L1/CD155 Stack 1 (Fc fusion)
# chain: WPPPGTGDVVVQAPTQVSGFLGDSVTLPCYLQVPNMEVTHVSQLTWARHGESGSMAVFHQTQGPWYAESKRLEFVAARLGAELRNASLRMFGLRVEDEGNYTCQFVTFPQRSRSVDIWLRVLGGGGSGGGGSEPKSSDKTHTCPPCPAPEAEGAPSVFLFPPKPKDTLMISRTPEVTCVVVDVSHEDPEVKFNWYVDGVEVHNAKTKPREEQYNSTYRVVSVLTVLHQDWLNGKEYKCKVSNKALPAPIEKTISKAKGQPREPQVYTLPPSRDELTKNQVSLTCLVKGFYPSDIAVEWESNGQPENNYKTTPPVLDSDGSFFLYSKLTVDKSRWQQGNVFSCSVMHEALHNHYTQKSLSLSPGKGGGGSGGGGSGGGGSFTVTVPKDLYVVEYGSNMTIECKFPVEKQLDLAALIVYWEMEGKDIIQFVHGEEDQKAQHSSYRQRARLLKDQLSLGNAALQITDVKLQDAGVYRCMISYGGGADYKRITVKVNA
# B5: PD-L1/CD155 Stack 3 (Fc fusion)
# chain: WPPPGTGDVVVQAPTQVSGFLGDSVTLPCYLQVPNMEVTHVSQLTWARHGESGSMAVFHQTQGPWYAESKRLEFVAARLGAELRNASLRMFGLRVEDEGNYTCQFVTFPQRSRSVDIWLRVLGGGGSGGGGSGGGGSFTVTVPKDLYVVEYGSNMTIECKFPVEKQLDLAALIVYWEMEGKDIIQFVHGEEDQKAQHSSYRQRARLLKDQLSLGNAALQITDVKLQDAGVYRCMISYGGGADYKRITVKVNAGGGGSGGGGSEPKSSDKTHTCPPCPAPEAEGAPSVFLFPPKPKDTLMISRTPEVTCVVVDVSHEDPEVKFNWYVDGVEVHNAKTKPREEQYNSTYRVVSVLTVLHQDWLNGKEYKCKVSNKALPAPIEKTISKAKGQPREPQVYTLPPSRDELTKNQVSLTCLVKGFYPSDIAVEWESNGQPENNYKTTPPVLDSDGSFFLYSKLTVDKSRWQQGNVFSCSVMHEALHNHYTQKSLSLSPGK
# B6: WT CD80 ECD Fc (Fc fusion, not shown: a dimerising Fc or GST)
# chain: VIHVTKEVKEVATLSCGHNVSVEELAQTRIYWQKEKKMVLTMMSGDMNIWPEYKNRTIFDITNNLSIVILALRPSDEGTYECVVLKYEKDAFKREHLAEVTLSVKADFPTPSISDFEIPTSNIRRIICSTSGGFPEPHLSWLENGEELNAINTTVSQDPETELYAVSSKLDFNMTTNHSFMCLIKYGHLRVNQTFNWNTTKQEHFPDN
# B7: PD-L1/CD155 Stack 2 (Fc fusion)
# chain: FTVTVPKDLYVVEYGSNMTIECKFPVEKQLDLAALIVYWEMEGKDIIQFVHGEEDQKAQHSSYRQRARLLKDQLSLGNAALQITDVKLQDAGVYRCMISYGGGADYKRITVKVNAGGGGSGGGGSEPKSSDKTHTCPPCPAPEAEGAPSVFLFPPKPKDTLMISRTPEVTCVVVDVSHEDPEVKFNWYVDGVEVHNAKTKPREEQYNSTYRVVSVLTVLHQDWLNGKEYKCKVSNKALPAPIEKTISKAKGQPREPQVYTLPPSRDELTKNQVSLTCLVKGFYPSDIAVEWESNGQPENNYKTTPPVLDSDGSFFLYSKLTVDKSRWQQGNVFSCSVMHEALHNHYTQKSLSLSPGKGGGGSGGGGSGGGGSWPPPGTGDVVVQAPTQVSGFLGDSVTLPCYLQVPNMEVTHVSQLTWARHGESGSMAVFHQTQGPWYAESKRLEFVAARLGAELRNASLRMFGLRVEDEGNYTCQFVTFPQRSRSVDIWLRVL
# B8: CD112-IgV (Fc fusion, not shown: a dimerising Fc or GST)
# chain: QDVRVQVLPEVRGQLGGTVELPCHLLPPVPGLYISLVTWQRPDAPANHQNVAAFHPKMGPSFPSPKPGSERLSFVSAKQSTGQDTEAELQDATLALHGLTVEDEGNYTCEFATFPKGSVRGMTWLRV
# Columns and labels:
# [1] = target: human PD-1 stably expressed on Jurkat/IL-2 reporter cells (Jurkat/PD-1 cells) (human, UniProt Q15116 21-288); assay: flow cytometry, Jurkat/PD-1 cells, 20 nM
# Chain of human PD-1 stably expressed on Jurkat/IL-2 reporter cells (Jurkat/PD-1 cells) (human, UniProt Q15116 21-288) (Q15116 21-288): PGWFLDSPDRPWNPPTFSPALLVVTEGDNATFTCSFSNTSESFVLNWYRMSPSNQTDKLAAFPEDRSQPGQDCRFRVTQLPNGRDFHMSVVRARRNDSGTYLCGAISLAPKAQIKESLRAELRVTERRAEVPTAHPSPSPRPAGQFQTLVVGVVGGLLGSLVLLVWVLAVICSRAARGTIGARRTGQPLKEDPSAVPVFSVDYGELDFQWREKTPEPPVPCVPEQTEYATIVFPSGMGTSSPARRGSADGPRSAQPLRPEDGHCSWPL
# [2] = target: T1, human TIGIT stably expressed on …; assay: cell-based or functional assay
# [3] = target: human PD-1 stably expressed on Jurkat/IL-2 reporter cells (Jurkat/PD-1 cells) (human, UniProt Q15116 25-288); assay: cell-based or functional assay
# Chain of human PD-1 stably expressed on Jurkat/IL-2 reporter cells (Jurkat/PD-1 cells) (human, UniProt Q15116 25-288) (Q15116 25-288): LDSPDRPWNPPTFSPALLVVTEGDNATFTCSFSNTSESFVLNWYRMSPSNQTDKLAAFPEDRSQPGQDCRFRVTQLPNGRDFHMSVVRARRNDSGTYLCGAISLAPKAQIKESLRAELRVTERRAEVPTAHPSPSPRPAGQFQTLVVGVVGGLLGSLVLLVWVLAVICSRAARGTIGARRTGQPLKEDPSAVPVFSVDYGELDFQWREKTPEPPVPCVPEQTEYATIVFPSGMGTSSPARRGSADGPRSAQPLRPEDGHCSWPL
# [4] = target: T2, human TIGIT stably expressed on …; assay: flow cytometry, Jurkat/TIGIT cells, 20 nM
# CD28 = CD28 (UniProt P10747 19-220); assay: flow cytometry, HEK293 cells transfected with CD28
# CD96 = target: T3, CD96; assay: flow cytometry, cells expressing CD96
binder,measurement,setting,value
B1,MFI at 20 nM,[1],511 MFI
B2,Fold Increase Compared to non-stack variant CD155 IgV-Fc control,[2],5.6 fold
same,Fold Increase Compared to non-stack variant PD-L1 IgV-Fc control,[2],2 fold
same,Fold Increase Compared to variant PD-L1 IgV-Fc and variant CD155 IgV-Fc,[2],2.7 fold
same,RLU,[2],1920 RLU
same,Fold Increase Compared to non-stack variant CD155 IgV-Fc control,[3],5.6 fold
same,Fold Increase Compared to non-stack variant PD-L1 IgV-Fc control,[3],2 fold
same,Fold Increase Compared to variant PD-L1 IgV-Fc and variant CD155 IgV-Fc,[3],2.7 fold
same,RLU,[3],1920 RLU
B3,MFI at 20 nM,[4],60500 MFI
same,MFI at 20 nM,[1],78000 MFI
B4,MFI at 20 nM,[4],80700 MFI
same,MFI at 20 nM,[1],61800 MFI
B5,MFI at 20 nM,[4],81800 MFI
same,MFI at 20 nM,[1],47300 MFI
B6,MFI at 66.6 nM,CD28,3070 MFI
B7,MFI at 20 nM,[4],36500 MFI
same,MFI at 20 nM,[1],69800 MFI
B8,MFI at 25 nM,CD96,1170 MFI
